This note sets out measurements from US20070154994A1 (NATIONAL RESEARCH COUNCIL OF CANADA, published 2007).

B1: MP-TβRIIIED-K5 fusion protein (receptor)
chain: GPEQKLISEEDLRQLRNPSGFQGQLDGNATFNMELYNTDLFLVPSPGVFSVAENEHVYVEVSVTKADQDLGFAIQTCFLSPYSNPDRMSDYTIIENICPKDDSVKFYSSKRVHFPIPHAEVDKKRFSFLFKSVFNTSLLFLHCELTLCSRKKGSLKLPRCVTPDDACTSLDATMIWTMMQNKKTFTKPLAVVLQVDYKENVPSTKDSSPIPPPPPQIFHGGRGGGGSGGGKVSALKEKVSALKEKVSALKEKVSALKEKVSALKEGGHHHHHH
notes: Secreted from HEK 293SF cells; also called Cterm-TβRIIIED-K5coil; K5 tagged TβRIIIED
B2: TβRIIED-E5 dimerized by K5ox (two TβRIIED-E5 to one K5ox) (receptor)
chain: TIPPEQKLISEEDLLHVQKSVNNDMIVTDNNGAVKFPQLCKFCDVRFSTCDNQKSCMSNCSITSICEKPQEVCVAVWRKNDENITLETVCHDPKLPYHDFILEDAASPKCIMKEKKKPGETFFMCSCSSDECNDNIIFSEEYNTSNPDGGRGGGGSGGGEVSALEKEVSALEKEVSALEKEVSALEKEVSALEKGGHHHHHH
peptide: CGGKVSALKEKVSALKEKVSALKEKVSALKEKVSALKE
modifications: N-terminal Cys oxidized, joining the two chains as a K5 covalent dimer
B3: TβRIIED-K5/TβRIIED-E5 coiled-coil induced dimer (receptor)
chain 1: TIPPEQKLISEEDLLHVQKSVNNDMIVTDNNGAVKFPQLCKFCDVRFSTCDNQKSCMSNCSITSICEKPQEVCVAVWRKNDENITLETVCHDPKLPYHDFILEDAASPKCIMKEKKKPGETFFMCSCSSDECNDNIIFSEEYNTSNPDGGRGGGGSGGGKVSALKEKVSALKEKVSALKEKVSALKEKVSALKEGGHHHHHH
chain 2: B2 chain
notes: Non-covalent dimer made by preincubating equimolar TβRIIED-K5 and TβRIIED-E5; also called TβRIIED-E5/TβRIIED-K5 dimer
B4: TβRIIED-E5 fusion protein (receptor)
chain: B2 chain
notes: Secreted from HEK 293SF cells; also called TβRII ED-E5 coil; E5 coiled-tagged TβRIIED
B5: K5ox (peptide)
peptide: B2 peptide
modifications: also: covalent homodimer via oxidized N-terminal Cys
notes: Synthetic peptide oxidized in ammonium bicarbonate at pH 8.0; also called oxidized CGGK5 coil; K5 covalent dimer

Where no end group is shown, it is not given here.

The target in test [1] is T1, Recombinant human TGF-β1 (human, UniProt P01137 279-390).
T1 construct: It was amine coupled to the CM5 chip in SPR and used at 10 pM in the luciferase assay; also called transforming growth factor-β1
Briefly: SPR, TGF-β1 coupled, simple model, Kdapp. Here is the method: (§1) In FIG. 6A, different concentrations of MP-TβRIIIED-K5 monomeric fusion protein ranging from 62.5 nM to 500 nM were injected over 75 RUs of coupled TGF-β1 and over a control surface. The points are the resonance units obtained after data preparation as described in Example 2, and the solid lines represent the fit when integrating all the curves simultaneously using a rearrangement model. FIGS. 6B-6C show residuals from the fit of the interaction data using a rearrangement model (FIG. 6B) and a simple one-to-one model (FIG. 6C).
(§2) Surface plasmon resonance studies were performed using a BIACORE™ biosensor (see for example U.S. Pat. No. 6,165,335 and related patents) using a running buffer composed of HBS; 20 mM Hepes (pH 7.4),150 mM NaCl, 3.4 mM EDTA, and 0.05% Tween20 for diluting all the test analytes.

Test [2] deals with T1, Recombinant human TGF-β1. Briefly: SPR, TGF-β1 coupled, rearrangement model, rearrangement step. Here is the method:
as §1, §2
A general note: In SPR one partner is held on a chip, and binding of the other changes the refractive index at the surface.

Test [3] deals with T1, Recombinant human TGF-β1. The test can be described thus: SPR, TGF-β1 coupled, simple model, kass#1. As for the experimental part:
as §1
(§3) Kinetic experiments were carried out at 25° C. with a flow rate of 100 μL/min. Different concentrations of MP-TβRIIIED-K5 (0 to 500 nM), or MP-TβRIIIED-mixed with equimolar concentrations of […] (0 to 150 nM), were randomly injected in duplicate over a TGF-β1 surface as well as over a control surface (150 μL injections), following which the analyte solution was replaced by buffer for at least 210 seconds. Regeneration of the sensor chip for subsequent injections was accomplished by two pulses of HCl (20 mM, 120 seconds), followed by an EXTRACLEAN procedure performed according to the BIACORE manual.

Test [4] deals with T1, Recombinant human TGF-β1. The test can be described thus: SPR, TGF-β1 coupled, simple model, Kd 1; simple model, Kd 1. As for the experimental part:
as §1, §2

The target in test [5] is T1, Recombinant human TGF-β1. Briefly: SPR, TGF-β1 coupled, rearrangement model, kass#1. Here is the method:
as §1, §2

In test [6] the target is T1, Recombinant human TGF-β1. Briefly: SPR, TGF-β1 coupled, rearrangement model, Kd 1 (initial binding step). As for the experimental part:
as §1, §2

The target in test [7] is T1, Recombinant human TGF-β1. Briefly: SPR, TGF-β1 coupled, simple model, Kdiss#1. Here is the method: as §1, §2
Test [8] concerns the target T1, Recombinant human TGF-β1. Briefly: SPR, TGF-β1 coupled, rearrangement model, Kdapp. As for the experimental part:
as §1, §3

The target of test [9] is T2, Recombinant human TβRIIED, untagged (human, UniProt P37173 23-166).
T2 construct: extracellular domain; Gift from Dr. Hinck; also called untagged hTβRII ED; untagged TβRIIED
Briefly: SPR (BIACORE), untagged hTβRII ED (about 120 RU left) captured on the coupled anti hTGF-βRII antibody, MP-TβRIIIED-K5 injected. As for the experimental part: This study is also described in Example 2.
A solution of 0.1 M ethanolamine-HCl (pH 8.5, 35 μL) was then used to block the remaining activated carboxyl groups.
Three studies were then performed at a flow rate of 5 μL/min: [0183] […] [0184] […] [0185]

The target of test [10] is T1, Recombinant human TGF-β1. Briefly: SPR, TGF-β1 coupled, rearrangement model, Kdiss#1. As for the experimental part:
as §1, §3

For test [11], the target named is T1, Recombinant human TGF-β1. Briefly: cell-based or functional assay.
Test [12] concerns the target T1, Recombinant human TGF-β1. The test can be described thus: SPR, TGF-β1 coupled, rearrangement model (best fit), Kdiss#1.
In test [13] the target is T1, Recombinant human TGF-β1. Briefly: SPR, TGF-β1 coupled, avidity model, Kd 1. Here is the method: (§4) Regeneration of the sensor chip for subsequent injections was accomplished by two pulses of HCl (20 mM, 120 seconds), followed by an EXTRACLEAN procedure performed according to the BIACORE manual.
Test [14] concerns the target T1, Recombinant human TGF-β1. The test can be described thus: SPR, TGF-β1 coupled, rearrangement model, rearrangement step. As for the experimental part: (§5) Since TGF-β1 is a covalent dimer, and since TβRIIED was artificially dimerized through coiled-coil interactions, two scenarios of binding were evaluated. […] This corresponds to an overall one to one (dimer-to-dimer) stoichiometry model with a rearrangement step after the initial binding (rearrangement model).
The source holds these as a separate data set.

Test [15] concerns the target T1, Recombinant human TGF-β1. The test can be described thus: SPR, TGF-β1 coupled, simple one-to-one model (poor fit), kass#1.
Test [16] addresses T1, Recombinant human TGF-β1. The test can be described thus: SPR, TGF-β1 coupled, rearrangement model (best fit), Kdapp.
Test [17] has as its target T1, Recombinant human TGF-β1. Briefly: SPR, TGF-β1 coupled, simple one-to-one model (poor fit), Kdapp. As for the experimental part: as §4
Test [18] deals with T1, Recombinant human TGF-β1. The test can be described thus: SPR, TGF-β1 coupled, rearrangement model (best fit), kass#1. As for the experimental part: as §5
For test [19], the target named is T1, Recombinant human TGF-β1. The test can be described thus: SPR, TGF-β1 coupled, simple one-to-one model (poor fit), Kd 1. Here is the method:
as §4

For test [20], the target named is T1, Recombinant human TGF-β1. Briefly: SPR, TGF-β1 coupled, rearrangement model, Kd 1 (initial binding step). Here is the method:
as §5
This is another data set of the same source.

Test [21] concerns the target T1, Recombinant human TGF-β1. Briefly: SPR, TGF-β1 coupled, simple one-to-one model (poor fit), Kdiss#1.
The target in test [22] is T1, Recombinant human TGF-β1. Briefly: SPR, TGF-β1 coupled, avidity model, Kdiss#1. Here is the method:
as §5

Test [23] concerns the target T1, Recombinant human TGF-β1. The test can be described thus: SPR, TGF-β1 coupled, avidity model, second step; unit from footnote **. As for the experimental part:
as §4

In test [24] the target is T1, Recombinant human TGF-β1. Briefly: SPR, TGF-β1 coupled, avidity model, kass#1. As for the experimental part:
as §5

The target of test [25] is T1, Recombinant human TGF-β1. The test can be described thus: SPR (BIACORE), TGF-β1 coupled, 300 nM TβRIIED-E5 alone; the pair is assigned by the fast wash-off that paragraph 133 gives for sensorgrams 1 and 4. The text has this:
(§6) In another embodiment of the invention, an alternative approach to achieving coiled-coil induced dimerization of TβRIIED is provided. In this embodiment, a dimeric coil is used to act as an adaptor to bridge two proteins.
(§7) Regeneration of the sensor chip was done as described above.

Test [26] deals with B4. Briefly: inferred from SPR of TβRIIED-E5 (300 nM) preincubated with K5ox over coupled TGF-β1.
Source text: as §6, §7

T1 sequence (P01137 279-390 limits assumed): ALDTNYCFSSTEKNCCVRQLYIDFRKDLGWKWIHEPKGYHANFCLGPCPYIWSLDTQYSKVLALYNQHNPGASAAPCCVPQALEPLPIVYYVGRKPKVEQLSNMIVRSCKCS
T2 sequence (P37173 23-166): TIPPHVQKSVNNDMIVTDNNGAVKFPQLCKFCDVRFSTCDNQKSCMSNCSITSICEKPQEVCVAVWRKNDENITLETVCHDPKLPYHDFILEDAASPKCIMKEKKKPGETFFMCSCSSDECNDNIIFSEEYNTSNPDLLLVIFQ

Take B1: the Kd in test [1] was found to be 48 nM; in test [4], 49 nM; in [6], 670 nM; in [8] it was 86 nM. Moreover, in test [2], the “kd 2 (no unit)” value was 0.15 no unit. The kon – broadly, the rate constant with which the complex forms – in test [3] turned out to be 50000 M⁻¹ s⁻¹; in test [5], 64000 M⁻¹ s⁻¹. Further, the koff (in general, a measure of how fast the partners let go of each other) turned out to be 0.0025 s⁻¹ in test [7] and 0.044 s⁻¹ in test [10]. For the same molecule, in [9], the binding result is “no binding (tested: 200 nM)”.
In the case of B2, in test [11], the “IC50 for inhibition of signaling (luciferase, MLEC cells)” value is approximately 30 nM and the “IC50 of TβRIIED-E5 in the presence of 150 nM K5ox (luciferase, MLEC cells)” value amounted to 53 nM.
For the molecule B3, the values for the off-rate constant (koff) in test [12], in test [21] and in test [22] were 0.11 s⁻¹, 0.00021 s⁻¹ and 0.071 s⁻¹, respectively. Besides, the Kd worked out at 330 nM in [13]; 1.5 nM in [16]; 0.33 nM in test [17]; 0.33 nM in [19]; 92 nM in test [20]. Besides, the “Kd 2 (no unit)” value in [14] stood at 0.0166 no unit. Besides, the kon in [15] amounted to 640000 M⁻¹ s⁻¹; in [18], 1.19e+06 M⁻¹ s⁻¹; in test [24], 213000 M⁻¹ s⁻¹. Besides, the “Kd 2” value in test [23] is 370 nM.
For B4, the binding result in test [25] was “binds”.
Turning to B5, the binding result in test [26] is “binds”.
